This series relates to Nc1nc2c(ncn2[C@@H]2O[C@H](COP(=O)(O)OP(=O)(O)OP(=O)(O)O)[C@@H](O)[C@H]2O)c(=O)[nH]1. Description: purified protein. As to conditions: 59 nM GST-FlhFBb; GTP 0-100 μM; room temperature.

One may read the Km as the concentration of substrate that gives half-maximal velocity. As a reminder, the Vmax is the rate approached at saturating substrate. Broadly, the kcat is the maximal rate divided by the concentration of active sites. As usually defined, the kcat/Km is the turnover number divided by the Michaelis constant. In the case of “rFlhFBb (BB0270, GST-FlhFBb) (Borreliella burgdorferi B31)”, the Km came out at 10.71 ± 2.08 µM, the Vmax amounted to 113 µmol/min, the kcat was 0.0318 ± 0.00133 s⁻¹ and the kcat/Km was determined as 2970 M⁻¹ s⁻¹.

Values taken from article PMC8085991.
